In article PMC10397247:
One block for each binder: values may come before it.

Experiments:
4H462-bA = biological target: T1, 4H462-bA; assay: two-hybrid library CCNG1;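 further: natural log of median RNA to DNA barcode read ratio; higher means stronger binding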
T1 chain: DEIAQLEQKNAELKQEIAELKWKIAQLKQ

4H3782-bA = biological target: T2, 4H3782-bA; assay: two-hybrid library CCNG1;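 further: natural log of median RNA to DNA barcode read ratio; higher means stronger binding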
T2 chain: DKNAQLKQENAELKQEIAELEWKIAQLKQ

4H1446-bA = biological target: T3, 4H1446-bA; assay: two-hybrid library CCNG1;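 further: natural log of median RNA to DNA barcode read ratio; higher means stronger binding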
T3 chain: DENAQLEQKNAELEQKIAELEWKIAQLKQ

4H1845-bA = biological target: T4, 4H1845-bA; assay: two-hybrid library CCNG1;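 further: natural log of median RNA to DNA barcode read ratio; higher means stronger binding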
T4 chain: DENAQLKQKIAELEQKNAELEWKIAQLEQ

4H4001-bA = biological target: T5, 4H4001-bA; assay: two-hybrid library CCNG1
T5 chain: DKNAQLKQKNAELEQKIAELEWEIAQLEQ

4H3606-bA = biological target: T6, 4H3606-bA; assay: two-hybrid library CCNG1
T6 chain: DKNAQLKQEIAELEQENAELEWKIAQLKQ

4H72-bA = biological target: T7, 4H72-bA; assay: two-hybrid library CCNG1
T7 chain: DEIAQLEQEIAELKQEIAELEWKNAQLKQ

4H2576-bA = biological target: T8, 4H2576-bA; assay: two-hybrid library CCNG1
T8 chain: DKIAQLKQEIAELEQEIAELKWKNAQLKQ

4H953-bA = biological target: T9, 4H953-bA; assay: two-hybrid library CCNG1
T9 chain: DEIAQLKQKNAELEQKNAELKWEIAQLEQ

4H2667-bA = biological target: T10, 4H2667-bA; assay: two-hybrid library CCNG1
T10 chain: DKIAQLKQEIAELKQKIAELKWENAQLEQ

4H2697-bA = biological target: T11, 4H2697-bA; assay: two-hybrid library CCNG1
T11 chain: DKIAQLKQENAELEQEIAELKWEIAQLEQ

4H797-bA = biological target: T12, 4H797-bA; assay: two-hybrid library CCNG1
T12 chain: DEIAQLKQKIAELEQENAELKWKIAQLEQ

4H346-bH = biological target: T13, 4H346-bH; assay: two-hybrid library CCNG1
T13 chain: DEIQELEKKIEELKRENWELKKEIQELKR

4H331-bA = biological target: T14, 4H331-bA; assay: two-hybrid library CCNG1
T14 chain: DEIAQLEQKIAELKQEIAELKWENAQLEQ

4H967-bA = biological target: T15, 4H967-bA; assay: two-hybrid library CCNG1
T15 chain: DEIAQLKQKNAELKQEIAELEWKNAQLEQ

4H2610-bA = biological target: T16, 4H2610-bA; assay: two-hybrid library CCNG1
T16 chain: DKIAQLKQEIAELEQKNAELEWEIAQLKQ

4H1328-bA = biological target: T17, 4H1328-bA; assay: two-hybrid library CCNG1
T17 chain: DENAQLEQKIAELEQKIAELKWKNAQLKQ

4H568-bA = biological target: T18, 4H568-bA; assay: two-hybrid library CCNG1
T18 chain: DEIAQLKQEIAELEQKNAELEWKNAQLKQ

4H607-bA = biological target: T19, 4H607-bA; assay: two-hybrid library CCNG1
T19 chain: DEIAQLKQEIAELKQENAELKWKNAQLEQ

4H3189-bA = biological target: T20, 4H3189-bA; assay: two-hybrid library CCNG1
T20 chain: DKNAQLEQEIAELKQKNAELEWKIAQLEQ

4H687-bA = biological target: T21, 4H687-bA; assay: two-hybrid library CCNG1
T21 chain: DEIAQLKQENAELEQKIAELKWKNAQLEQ

4H883-bA = biological target: T22, 4H883-bA; assay: two-hybrid library CCNG1
T22 chain: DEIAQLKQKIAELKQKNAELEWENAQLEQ

4H1369-bA = biological target: T23, 4H1369-bA; assay: two-hybrid library CCNG1
T23 chain: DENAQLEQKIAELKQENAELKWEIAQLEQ

4H370-bA = biological target: T24, 4H370-bA; assay: two-hybrid library CCNG1
T24 chain: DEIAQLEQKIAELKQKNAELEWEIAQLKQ

4H3843-bA = biological target: T25, 4H3843-bA; assay: two-hybrid library CCNG1
T25 chain: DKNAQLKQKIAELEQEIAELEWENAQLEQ

4H918-bA = biological target: T26, 4H918-bA; assay: two-hybrid library CCNG1
T26 chain: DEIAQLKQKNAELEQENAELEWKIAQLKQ

O5 = biological target: T27, O5; assay: two-hybrid library CC0; conditions: mean of both orientations
T27 chain: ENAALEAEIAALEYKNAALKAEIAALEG

O15 = biological target: T28, O15; assay: two-hybrid library CC0; conditions: mean of both orientations
T28 chain: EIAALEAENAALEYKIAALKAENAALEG

O7 = biological target: T29, O7; assay: two-hybrid library CC0; conditions: mean of both orientations
T29 chain: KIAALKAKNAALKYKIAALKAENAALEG

O16 = biological target: T30, O16; assay: two-hybrid library CC0; conditions: mean of both orientations
T30 chain: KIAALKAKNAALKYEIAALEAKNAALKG

O8 = biological target: T31, O8; assay: two-hybrid library CC0; conditions: mean of both orientations
T31 chain: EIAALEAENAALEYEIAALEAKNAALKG

O9 = biological target: T32, O9; assay: two-hybrid library CC0; conditions: mean of both orientations
T32 chain: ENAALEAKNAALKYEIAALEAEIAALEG

O12 = biological target: T33, O12; assay: two-hybrid library CC0; conditions: mean of both orientations
T33 chain: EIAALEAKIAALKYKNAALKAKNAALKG

O4 = biological target: T34, O4; assay: two-hybrid library CC0; conditions: mean of both orientations
T34 chain: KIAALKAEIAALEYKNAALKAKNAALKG

O2 = biological target: T35, O2; assay: two-hybrid library CC0; conditions: mean of both orientations
T35 chain: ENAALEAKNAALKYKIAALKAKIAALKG

O13 = biological target: T36, O13; assay: two-hybrid library CC0; conditions: mean of both orientations
T36 chain: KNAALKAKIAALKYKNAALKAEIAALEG

O14 = biological target: T37, O14; assay: two-hybrid library CC0; conditions: mean of both orientations
T37 chain: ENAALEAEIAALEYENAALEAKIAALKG

O10 = biological target: T38, O10; assay: two-hybrid library CC0; conditions: mean of both orientations
T38 chain: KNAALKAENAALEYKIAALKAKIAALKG

O11 = biological target: T39, O11; assay: two-hybrid library CC0; conditions: mean of both orientations
T39 chain: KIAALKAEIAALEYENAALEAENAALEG

O6 = biological target: T40, O6; assay: two-hybrid library CC0; conditions: mean of both orientations
T40 chain: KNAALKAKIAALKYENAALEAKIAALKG

O3 = biological target: T41, O3; assay: two-hybrid library CC0; conditions: mean of both orientations
T41 chain: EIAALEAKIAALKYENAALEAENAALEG

interaction score (4H462-bA): -0.405
interaction score (4H3782-bA): 0.142
interaction score (4H1446-bA): 0.372
interaction score (4H1845-bA): -0.257
interaction score (4H4001-bA): 1.48
interaction score (4H3606-bA): 0.221
interaction score (4H72-bA): 1.25
interaction score (4H2576-bA): 1.95
interaction score (4H953-bA): -0.977
interaction score (4H2667-bA): 0.432
interaction score (4H2697-bA): 0.429
interaction score (4H797-bA): -1.68
interaction score (4H346-bH): 0.114
interaction score (4H331-bA): 1.02
interaction score (4H967-bA): -0.292
interaction score (4H2610-bA): -0.633
interaction score (4H1328-bA): 1.62
interaction score (4H568-bA): -0.0125
interaction score (4H607-bA): -0.918
interaction score (4H3189-bA): -0.907
interaction score (4H687-bA): -0.983
interaction score (4H883-bA): -0.916
interaction score (4H1369-bA): -0.903
interaction score (4H370-bA): -0.958
interaction score (4H3843-bA): 1.8
interaction score (4H918-bA): -0.412
B1: 4H1328-bA (peptide)
chain: DENAQLEQKIAELEQKIAELKWKNAQLKQ

B2: O10 (peptide)
chain: KNAALKAENAALEYKIAALKAKIAALKG
interaction score (O5): -1.82
interaction score (O15): -2.76
interaction score (O7): -2.72
interaction score (O16): -2.56
interaction score (O8): -2.5
interaction score (O9): 1.47
interaction score (O12): -2.82
interaction score (O4): -2.63
interaction score (O2): -1.28
interaction score (O13): -2.76
interaction score (O14): -2.57
interaction score (O10): -2.67
interaction score (O11): -2.65
interaction score (O6): -2.76
interaction score (O3): -2.6
